Source: patent US20090214535A1 (Chugai, published 2009)
Residue numbers refer to the chain shown, from its start. Read-outs that look alike come from different tables or passages of the source. Blank lines part the entries; values can stand above or below the binder they belong to.

Columns and labels:
Test in all cases: cell-based or functional assay
[1] = biological target: T1, human Mpl (on BaF3-human Mpl cells) (human, UniProt P40238 26-635)
T1 sequence (looked up): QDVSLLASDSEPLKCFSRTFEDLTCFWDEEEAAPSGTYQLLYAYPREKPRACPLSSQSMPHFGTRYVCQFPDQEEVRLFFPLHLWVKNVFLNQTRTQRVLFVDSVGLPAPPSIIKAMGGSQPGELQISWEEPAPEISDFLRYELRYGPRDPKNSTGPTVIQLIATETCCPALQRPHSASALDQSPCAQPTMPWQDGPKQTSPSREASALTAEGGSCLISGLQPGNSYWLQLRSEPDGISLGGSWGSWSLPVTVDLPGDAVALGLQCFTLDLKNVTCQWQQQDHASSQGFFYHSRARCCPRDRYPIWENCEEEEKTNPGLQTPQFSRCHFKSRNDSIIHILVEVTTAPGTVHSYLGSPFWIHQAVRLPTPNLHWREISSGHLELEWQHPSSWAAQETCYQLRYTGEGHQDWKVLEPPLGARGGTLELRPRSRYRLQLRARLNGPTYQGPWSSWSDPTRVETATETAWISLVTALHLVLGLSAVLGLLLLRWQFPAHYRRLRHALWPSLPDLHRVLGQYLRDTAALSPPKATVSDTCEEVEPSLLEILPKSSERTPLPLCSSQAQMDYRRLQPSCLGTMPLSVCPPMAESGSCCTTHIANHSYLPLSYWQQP

[2] = biological target: monkey Mpl (on BaF3-monkey Mpl cells) (monkey)
[3] = biological target: T1, human Mpl (on BaF3-human Mpl cells); remark: listed apart in the source
[4] = biological target: monkey Mpl (on BaF3-monkey Mpl cells) (monkey); remark: listed apart in the source
[5] = biological target: T1, human Mpl (on BaF3-human Mpl cells); remark: listed apart in the source
[6] = biological target: monkey Mpl (on BaF3-monkey Mpl cells) (monkey); remark: listed apart in the source
[7] = biological target: Mpl on the BaF3 cells of FIG. 42 (human or monkey not stated)

EC50 (read off the curve) [A) BaF-human Mpl] [1]: ~0.04 nM
EC50 (read off the curve) [B) BaF-monkey Mpl] [2]: ~0.04 nM
EC50 (read off the curve) [A) BaF-human Mpl] [3]: ~0.06 nM
EC50 (read off the curve) [B) BaF-monkey Mpl] [4]: ~0.02 nM
B1: humanized anti-human Mpl antibody hVB22B u2-wz4 sc(Fv)2 (bulk, before separation of the conformational isomers) (scFv)
chain: QVQLVQSGPEVKKPGASVKVSCKASGYTFTNSWMNWVRQRPGKGLEWIGRIYPGDGETIYNGKFRVRVTITADESTSTAYMQLSSLRSEDTAVYYCARGYDDYSFAYWGQGTTVTVSSGGGGSGGGGSGGGGSDIVMTQSPLSLPVTPGEPASISCRSSKSLLHSNGNTYLYWFLQKPGQSPQLLIYRMSNLASGVPDRFSGSGSGTDFTLKISRVEAEDVGVYYCMQHIEYPFTFGQGTKLEIKGGGGSGGGGSGGGGSQVQLVQSGPEVKKPGASVKVSCKASGYTFTNSWMNWVRQRPGKGLEWIGRIYPGDGETIYNGKFRVRVTITADESTSTAYMQLSSLRSEDTAVYYCARGYDDYSFAYWGQGTTVTVSSGGGGSGGGGSGGGGSDIVMTQSPLSLPVTPGEPASISCRSSKSLLHSNGNTYLYWFLQKPGQSPQLLIYRMSNLASGVPDRFSGSGSGTDFTLKISRVEAEDVGVYYCMQHIEYPFTFGQGTKLEIK

EC50 (read off the curve) [A) BaF-human Mpl] [1]: ~0.04 nM
EC50 (read off the curve) [B) BaF-monkey Mpl] [2]: ~0.03 nM
EC50 (read off the curve) [A) BaF-human Mpl] [3]: ~0.05 nM
EC50 (read off the curve) [B) BaF-monkey Mpl] [4]: ~0.02 nM
B2: hVB22B u2-wz4 sc(Fv)2 peak 2 (single chain diabody-type conformational isomer) (scFv)
chain: B1 chain

EC50 (read off the curve) [A) BaF-human Mpl] [3]: ~0.04 nM
EC50 (read off the curve) [B) BaF-monkey Mpl] [4]: ~0.04 nM
B3: hVB22B u2-wz4 (v1) sc(Fv)2 (scFv)
chain: B1 chain with Q39E, Q176E, Q299K, Q436K

EC50 (read off the curve) [A) BaF-human Mpl] [3]: ~0.1 nM
B4: hVB22B u2-wz4 (v3) sc(Fv)2 (scFv)
chain: B1 chain with Q39E, Q176K, Q299K, Q436E

EC50 (read off the curve) [A) BaF-human Mpl] [5]: ~0.008 nM
EC50 (read off the curve) [B) BaF-monkey Mpl] [6]: ~0.02 nM
EC50 (read off the curve) [7]: ~0.6 ng/mL
B5: VB22B sc(Fv)2 peak 2 (single chain diabody-type conformational isomer) (scFv)
chain: QVQLQQSGPELVKPGASVKISCKASGYAFTNSWMNWVKQRPGKGLEWIGRIYPGDGETIYNGKFRVKATLTADKSSSTAYMDISSLTSEDSAVYFCARGYDDYSFAYWGQGTLVTVSAGGGGSGGGGSGGGGSDIVMTQAAPSIPVTPGESVSISCRSSKSLLHSNGNTYLYWFLQRPGQSPQLLIYRMSNLASGVPDRFSGSGSGTAFTLRISRVEAEDVGVYYCMQHIEYPFTFGSGTKLEIKGGGGSGGGGSGGGGSQVQLQQSGPELVKPGASVKISCKASGYAFTNSWMNWVKQRPGKGLEWIGRIYPGDGETIYNGKFRVKATLTADKSSSTAYMDISSLTSEDSAVYFCARGYDDYSFAYWGQGTLVTVSAGGGGSGGGGSGGGGSDIVMTQAAPSIPVTPGESVSISCRSSKSLLHSNGNTYLYWFLQRPGQSPQLLIYRMSNLASGVPDRFSGSGSGTAFTLRISRVEAEDVGVYYCMQHIEYPFTFGSGTKLEIK

EC50 (read off the curve) [A) BaF-human Mpl] [5]: ~0.01 nM
EC50 (read off the curve) [B) BaF-monkey Mpl] [6]: ~0.03 nM
B6: mouse anti-human Mpl antibody mVB22B sc(Fv)2 (before separation of the conformational isomers) (scFv)
chain: B5 chain
